We go through one molecule from US7534862.

The target in experiment [1] is IL-6/sIL-6R complex (100 ng/ml IL-6 + 50 ng/ml sIL-6R) (UniProt P05231). The experiment in a line: cell-based or functional assay.
The target in experiment [2] is hyper-IL-6 (H-IL-6), a fusion protein comprising IL-6+sIL-6R (UniProt P08887). Nature of the experiment: cell-based or functional assay.
Chain of hyper-IL-6 (H-IL-6), a fusion protein comprising IL-6+sIL-6R (P08887 20-323 limits assumed, chain 1 of 2): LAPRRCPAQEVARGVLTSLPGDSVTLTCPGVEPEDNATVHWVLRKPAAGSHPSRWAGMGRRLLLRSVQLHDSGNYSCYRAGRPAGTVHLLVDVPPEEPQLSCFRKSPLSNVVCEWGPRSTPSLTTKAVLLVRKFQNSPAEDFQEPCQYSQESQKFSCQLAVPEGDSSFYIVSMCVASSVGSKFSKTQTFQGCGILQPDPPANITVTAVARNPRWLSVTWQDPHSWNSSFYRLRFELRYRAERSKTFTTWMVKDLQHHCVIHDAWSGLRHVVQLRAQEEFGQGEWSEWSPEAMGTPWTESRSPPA
Chain of hyper-IL-6 (H-IL-6), a fusion protein comprising IL-6+sIL-6R (P05231 30-212 limits assumed, chain 2 of 2, further chain): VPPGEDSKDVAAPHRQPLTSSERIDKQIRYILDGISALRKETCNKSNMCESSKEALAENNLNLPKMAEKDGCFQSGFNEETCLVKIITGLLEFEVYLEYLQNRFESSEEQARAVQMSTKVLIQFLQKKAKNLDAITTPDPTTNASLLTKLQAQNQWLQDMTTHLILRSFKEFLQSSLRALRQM

Chain of IL-6/sIL-6R complex (100 ng/ml IL-6 + 50 ng/ml sIL-6R) (P05231 30-212 limits assumed, chain 1 of 2): as the sequence (P05231 30-212 limits assumed, chain 2 of 2, further chain) above
Chain of IL-6/sIL-6R complex (100 ng/ml IL-6 + 50 ng/ml sIL-6R) (P08887 20-358 limits assumed, chain 2 of 2, further chain): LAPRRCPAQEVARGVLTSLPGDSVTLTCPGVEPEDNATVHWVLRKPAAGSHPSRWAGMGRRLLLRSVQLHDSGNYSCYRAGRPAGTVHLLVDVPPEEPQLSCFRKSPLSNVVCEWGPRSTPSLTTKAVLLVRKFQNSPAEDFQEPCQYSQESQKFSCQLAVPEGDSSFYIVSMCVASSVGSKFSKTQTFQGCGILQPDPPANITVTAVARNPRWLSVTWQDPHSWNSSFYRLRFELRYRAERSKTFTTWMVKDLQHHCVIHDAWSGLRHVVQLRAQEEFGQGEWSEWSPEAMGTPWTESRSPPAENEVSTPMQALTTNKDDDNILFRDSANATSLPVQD

B1: sgp130PEG (PEGylated sgp130(D1-D3)-Pn dimer) (receptor, part only)
chain: MLTLQTWVVQALFIFLTTESTGELLDPCGYISPESPVVQLHSNFTAVCVLKEKCMDYFHVNANYIVWKTNHFTIPKEQYTIINRTASSVTFTDIASLNIQLTCNILTFGQLEQNVYGITIISGLPPEKPKNLSCIVNEGKKMRCEWDGGRETHLETNFTLKSEWATHKFADCKAKRDTPTSCTVDYSTVYFVNIEVWVEAENALGKVTSDHINFDPVYKVKPNPPHNLSVINSEELSSILKLTWTNPSIKSVIILKYNIQYRTKDASTWSQIPPEDTASTRSSFTVQDLKPFTEYVFRIRCMKEDGKGYWSDWSEEASGITYEDRP
modifications: C-terminal Pn cysteine peptide unsequenced; PEGylated; disulfide dimer
B1: in experiment [1], the factor of improvement over sgp130Fc in inhibition of BAF/gp130 proliferation (fold vs sgp130Fc) was 1.5 to 3 and the half-maximal [3H]-thymidine incorporation of BAF/gp130 cells (proliferation) lay in the range of 1 to 5 ng/mL. In experiment [2], this molecule showed an STAT3 activity (relative luciferase activity, pSTAT3-TA-Luc reporter in BAF/gp130 cells) at 10 ug/ml inhibitor, 5 ng/ml H-IL-6 (% of activity with H-IL-6 alone) of 18; a concentration giving half-maximal activation of STAT3 (H-IL-6-induced, luciferase reporter in BAF/gp130 cells) of 2.5 µg/mL; an efficiency relative to sgp130Fc in inhibition of H-IL-6-induced STAT3 activation (fold vs sgp130Fc) of 2 to 3; a factor of improvement over sgp130Fc in inhibition of BAF/gp130 proliferation (fold vs sgp130Fc) of 1.5 to 3. Besides, the half-maximal [3H]-thymidine incorporation of BAF/gp130 cells (proliferation) in experiment [2] was 1 to 5 ng/mL.
